In test [1] the target is T1, recombinant human ROBO4 extracellular region polypeptide rROBO4-ECD (human, UniProt Q8WZ75 28-461).
T1 construct: Expressed from pEF6/V5-His-TOPO in FreeStyle 293-F cells; also called human ROBO4-ECD
T1 sequence: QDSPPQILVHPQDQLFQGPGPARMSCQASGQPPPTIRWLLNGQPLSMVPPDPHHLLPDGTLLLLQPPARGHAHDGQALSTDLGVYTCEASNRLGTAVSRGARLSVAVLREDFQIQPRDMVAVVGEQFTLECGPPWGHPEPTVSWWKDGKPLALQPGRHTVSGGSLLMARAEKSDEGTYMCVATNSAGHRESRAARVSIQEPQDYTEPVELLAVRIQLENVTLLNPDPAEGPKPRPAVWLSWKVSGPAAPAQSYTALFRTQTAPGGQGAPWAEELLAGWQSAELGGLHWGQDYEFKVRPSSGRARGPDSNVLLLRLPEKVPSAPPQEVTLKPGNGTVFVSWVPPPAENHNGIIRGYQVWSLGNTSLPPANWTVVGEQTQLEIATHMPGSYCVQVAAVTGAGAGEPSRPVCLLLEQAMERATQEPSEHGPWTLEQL
Kind of test: SPR (Biacore 3000), antibody captured via anti-human IgG on CM5, rROBO4-ECD as analyte, 1:1 model. The procedure: The dissociation constant between each antibody and rROBO4-ECD was determined with the antibody immobilized as a ligand and the antigen as an analyte using Biacore 3000 (manufactured by GE Healthcare Bio-Sciences Corp.). Approximately 80 RU of the antibody was bound via an anti-human IgG antibody (manufactured by GE Healthcare Bio-Sciences Corp.) immobilized on a sensor chip CM5 (manufactured by GE Healthcare Bio-Sciences Corp.) by an amine coupling method. The running buffer used was PBS containing 0.05% Surfactant P20. Dilution series solutions (0.1-200 nM) of the antigen were added at a flow rate of 30 μL/min. for 300 seconds onto the antibody-bound chip. Subsequently, a dissociation phase was monitored for 300 seconds. 3 M MgCl₂ was added thereto as a regeneration solution at a flow rate of 10 μL/min. for 30 seconds. Data was analyzed using the 1:1 binding model of analysis software (BIAevaluation Software, version 4.1) to calculate an association rate constant kon, a dissociation rate constant koff, and a dissociation constant (KD; KD=koff/kon).
(In general: Surface plasmon resonance follows binding to a sensor surface in real time, without labels.)

Test [2] deals with T2, human ROBO3 (pCI-hROBO3-transfected HEK293 cells) (human, UniProt Q96MS0 21-1386).
T2 sequence: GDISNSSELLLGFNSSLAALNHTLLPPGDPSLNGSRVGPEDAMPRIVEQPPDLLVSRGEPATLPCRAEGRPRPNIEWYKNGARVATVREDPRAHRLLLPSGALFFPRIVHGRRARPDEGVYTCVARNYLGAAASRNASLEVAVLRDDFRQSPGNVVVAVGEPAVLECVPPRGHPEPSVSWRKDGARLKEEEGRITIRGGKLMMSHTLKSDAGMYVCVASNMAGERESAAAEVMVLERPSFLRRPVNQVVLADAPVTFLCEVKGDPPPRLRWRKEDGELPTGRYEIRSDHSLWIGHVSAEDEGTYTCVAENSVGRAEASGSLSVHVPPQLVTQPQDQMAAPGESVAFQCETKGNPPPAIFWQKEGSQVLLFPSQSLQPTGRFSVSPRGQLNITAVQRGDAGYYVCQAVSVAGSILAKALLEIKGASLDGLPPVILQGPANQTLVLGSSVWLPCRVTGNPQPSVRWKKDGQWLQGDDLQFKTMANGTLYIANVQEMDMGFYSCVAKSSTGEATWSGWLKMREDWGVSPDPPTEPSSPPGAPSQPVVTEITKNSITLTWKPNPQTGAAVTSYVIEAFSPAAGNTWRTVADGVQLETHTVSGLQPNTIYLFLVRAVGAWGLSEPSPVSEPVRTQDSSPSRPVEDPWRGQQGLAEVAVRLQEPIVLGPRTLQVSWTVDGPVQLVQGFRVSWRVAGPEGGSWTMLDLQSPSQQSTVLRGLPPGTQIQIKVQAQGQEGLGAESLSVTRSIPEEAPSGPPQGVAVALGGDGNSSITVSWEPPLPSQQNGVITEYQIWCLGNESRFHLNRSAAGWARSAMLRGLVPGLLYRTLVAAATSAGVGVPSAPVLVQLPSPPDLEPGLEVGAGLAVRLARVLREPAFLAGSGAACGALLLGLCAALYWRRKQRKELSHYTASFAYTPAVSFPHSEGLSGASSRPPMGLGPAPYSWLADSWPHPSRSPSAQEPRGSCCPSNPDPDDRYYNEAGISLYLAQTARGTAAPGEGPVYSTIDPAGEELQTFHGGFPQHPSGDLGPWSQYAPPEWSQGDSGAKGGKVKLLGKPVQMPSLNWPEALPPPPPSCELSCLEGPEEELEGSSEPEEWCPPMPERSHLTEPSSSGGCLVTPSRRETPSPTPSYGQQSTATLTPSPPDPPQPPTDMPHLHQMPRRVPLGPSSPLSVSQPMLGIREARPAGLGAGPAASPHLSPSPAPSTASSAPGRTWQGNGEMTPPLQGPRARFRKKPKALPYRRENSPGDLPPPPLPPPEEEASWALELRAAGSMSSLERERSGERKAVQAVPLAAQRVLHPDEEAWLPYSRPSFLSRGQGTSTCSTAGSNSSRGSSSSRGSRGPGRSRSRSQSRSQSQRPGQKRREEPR
Nature of the test: flow cytometry (FC500), HEK293 cells transfected with pCI-hROBO3, FITC goat anti-human IgG Fc; control histogram IgG (human IgG).

Test [3] has as its target N-terminal FLAG-tagged human ROBO1 (pCI-FLAG-hROBO1-transfected HEK293 cells) (human, UniProt Q9Y6N7 58-1651). Kind of test: flow cytometry (FC500), HEK293 cells transfected with pCI-FLAG-hROBO1, FITC goat anti-human IgG Fc; control histogram IgG (human IgG).

Sequence of N-terminal FLAG-tagged human ROBO1 (pCI-FLAG-hROBO1-transfected HEK293 cells) (Q9Y6N7 other isoform, or with tags, fused parts or gaps): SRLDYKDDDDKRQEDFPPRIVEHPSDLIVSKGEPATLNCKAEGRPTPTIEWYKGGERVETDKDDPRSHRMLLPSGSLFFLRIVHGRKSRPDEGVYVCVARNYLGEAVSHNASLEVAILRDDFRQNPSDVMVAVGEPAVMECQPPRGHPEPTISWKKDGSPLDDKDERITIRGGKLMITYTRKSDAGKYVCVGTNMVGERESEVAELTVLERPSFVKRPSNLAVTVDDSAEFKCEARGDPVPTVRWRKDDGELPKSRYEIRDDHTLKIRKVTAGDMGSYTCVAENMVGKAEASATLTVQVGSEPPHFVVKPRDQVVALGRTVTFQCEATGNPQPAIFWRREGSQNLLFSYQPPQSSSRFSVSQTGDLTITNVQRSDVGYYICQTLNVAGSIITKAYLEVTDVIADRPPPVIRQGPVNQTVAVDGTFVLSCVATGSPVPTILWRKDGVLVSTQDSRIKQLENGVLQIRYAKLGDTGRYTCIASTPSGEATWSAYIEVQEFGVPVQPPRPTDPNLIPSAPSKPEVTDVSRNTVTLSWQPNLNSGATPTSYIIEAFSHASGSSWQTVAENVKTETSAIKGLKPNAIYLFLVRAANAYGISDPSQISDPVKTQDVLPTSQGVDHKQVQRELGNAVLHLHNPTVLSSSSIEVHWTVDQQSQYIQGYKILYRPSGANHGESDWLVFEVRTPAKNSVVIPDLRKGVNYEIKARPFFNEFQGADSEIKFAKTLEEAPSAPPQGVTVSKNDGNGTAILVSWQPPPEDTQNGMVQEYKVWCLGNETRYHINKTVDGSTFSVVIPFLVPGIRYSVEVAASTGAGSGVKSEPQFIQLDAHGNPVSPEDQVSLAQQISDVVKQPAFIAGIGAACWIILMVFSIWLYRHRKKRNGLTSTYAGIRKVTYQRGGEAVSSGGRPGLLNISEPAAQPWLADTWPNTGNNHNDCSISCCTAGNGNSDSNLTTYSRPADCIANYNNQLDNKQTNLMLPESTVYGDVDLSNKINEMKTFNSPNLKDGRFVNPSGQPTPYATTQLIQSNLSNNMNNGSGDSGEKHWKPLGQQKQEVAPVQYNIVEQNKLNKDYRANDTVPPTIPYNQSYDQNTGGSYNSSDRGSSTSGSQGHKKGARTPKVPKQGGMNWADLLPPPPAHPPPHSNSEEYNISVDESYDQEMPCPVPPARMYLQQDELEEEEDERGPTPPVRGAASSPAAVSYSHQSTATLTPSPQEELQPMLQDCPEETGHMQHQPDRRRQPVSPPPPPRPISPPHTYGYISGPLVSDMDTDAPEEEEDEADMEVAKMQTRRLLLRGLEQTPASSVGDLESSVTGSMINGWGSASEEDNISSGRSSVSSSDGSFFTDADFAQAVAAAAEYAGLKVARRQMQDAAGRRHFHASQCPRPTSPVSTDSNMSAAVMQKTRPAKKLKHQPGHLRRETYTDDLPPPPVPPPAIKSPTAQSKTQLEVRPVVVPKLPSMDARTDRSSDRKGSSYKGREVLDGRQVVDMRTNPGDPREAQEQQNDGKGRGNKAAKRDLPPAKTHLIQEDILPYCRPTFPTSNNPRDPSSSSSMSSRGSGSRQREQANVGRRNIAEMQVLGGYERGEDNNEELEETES

B1: humanized MAb1 antibody H-1143 (antibody, human IgG2, kappa, V domains shown)
VH: EVQLVESGGGLVQPGGSLRLSCAASGFTFSTYAMSWVRQAPGKGLEWVATISQGGTYTYYPDSVKGRFTISRDNAKNTLYLQMNSLRAEDTAVYYCARLIYYDYLDYWGQGTLVTVSS
VL: DIVMTQSPLSLPVTLGEPASISCRSSQSLENENKNLYLNWYLQKPGQSPQLLIYRVSNRFSGVPDRFSGSGSGTDFTLKISRVEAEDVGVYYCLQVTHVPWTFGPGTKVDIKR
notes: Human IgG2 / kappa constant regions; also called hMAb1-H2-type heavy chain + hMAb1-L2-type light chain
Regarding B1, the Kd (in general, a measure of binding affinity in units of concentration) in test [1] came out at 3.5 nM. Moreover, the binding result in test [2] and in test [3] was “no binding (tested: 10 µg/mL)” in each case.

B2: humanized MAb1 antibody H-2140 (antibody, human IgG2, kappa, V domains shown)
VH: EVQLVESGGGLVQPGGSLRLSCAASGFTFSTYAMSWVRQAPGKRLEWVATISQGGTYTYYPDSVKGRFTISRDNAKNTLYLQMNSLRAEDTAVYYCARLIYYDYLDYWGQGTLVTVSS
VL: DIVMTQSPLSLPVTLGEPASISCRSSQSLENSNGNTYLNWYLQKPGQSPQLLIYRVSNRFSGVPDRFSGSGSGTDFTLKISRVEAEDVGVYYCLQVTHVPWTFGPGTKVDIKR
notes: Human IgG2 / kappa constant regions; also called hMAb1-H4-type heavy chain + hMAb1-L1-type light chain
Turning to B2, in test [1], the Kd was 1.8 nM. In addition, the binding result in test [2] and in test [3] was “no binding (tested: 10 µg/mL)” in each case.

B3: humanized MAb1 antibody H-2143 (antibody, human IgG2, kappa, V domains shown)
VH: EVQLVESGGGLVQPGGSLRLSCAASGFTFSTYAMSWVRQAPGKRLEWVATISQGGTYTYYPDSVKGRFTISRDNAKNTLYLQMNSLRAEDTAVYYCARLIYYDYLDYWGQGTLVTVSS
VL: DIVMTQSPLSLPVTLGEPASISCRSSQSLENENKNLYLNWYLQKPGQSPQLLIYRVSNRFSGVPDRFSGSGSGTDFTLKISRVEAEDVGVYYCLQVTHVPWTFGPGTKVDIKR
notes: Human IgG2 / kappa constant regions; also called hMAb1-H4-type heavy chain + hMAb1-L2-type light chain
Consider B3, for which the Kd in test [1] is 1.7 nM. Further, the binding result in test [2] and in test [3] was “no binding (tested: 10 µg/mL)” throughout.

B4: humanized MAb1 antibody H-1140 (antibody, human IgG2, kappa, V domains shown)
VH: EVQLVESGGGLVQPGGSLRLSCAASGFTFSTYAMSWVRQAPGKGLEWVATISQGGTYTYYPDSVKGRFTISRDNAKNTLYLQMNSLRAEDTAVYYCARLIYYDYLDYWGQGTLVTVSS
VL: DIVMTQSPLSLPVTLGEPASISCRSSQSLENSNGNTYLNWYLQKPGQSPQLLIYRVSNRFSGVPDRFSGSGSGTDFTLKISRVEAEDVGVYYCLQVTHVPWTFGPGTKVDIKR
notes: Human IgG2 / kappa constant regions; also called hMAb1-H2-type heavy chain + hMAb1-L1-type light chain
Turning to B4, the Kd in test [1] turned out to be 3.9 nM.

The values above are taken from patent US20150098945A1 (Daiichi Sankyo, published 2015).
